This note sets out measurements from patent US20260001928A1 (CORTERIA PHARMACEUTICALS, priority 2022, published 2026).

*1 amine or outer side, *2 acyl side, *3 side chain or, on linkers, in order; H or OH if unused. Side-chain parts run from the residue outwards. [ ]: non-standard residue; d: D form. The star is where a group is joined. C18 diacid = O=C(O)CCCCCCCCCCCCCCCCC(=O)*; C16 diacid = O=C(O)CCCCCCCCCCCCCCC(=O)*; γGlu = O=C(O)[C@H](CCC(=O)[*:2])N[*:1]; Pentanoyl = CCCCC(=O)*; AEEA = NCCOCCOCC(=O)O; Aib = CC(C)(N)C(=O)O; Propionyl = CCC(=O)*; Butyryl = CCCC(=O)*

In one test the target is T1, CRF1R receptor (UniProt P34998 24-415, limits assumed).
T1 sequence (looked up): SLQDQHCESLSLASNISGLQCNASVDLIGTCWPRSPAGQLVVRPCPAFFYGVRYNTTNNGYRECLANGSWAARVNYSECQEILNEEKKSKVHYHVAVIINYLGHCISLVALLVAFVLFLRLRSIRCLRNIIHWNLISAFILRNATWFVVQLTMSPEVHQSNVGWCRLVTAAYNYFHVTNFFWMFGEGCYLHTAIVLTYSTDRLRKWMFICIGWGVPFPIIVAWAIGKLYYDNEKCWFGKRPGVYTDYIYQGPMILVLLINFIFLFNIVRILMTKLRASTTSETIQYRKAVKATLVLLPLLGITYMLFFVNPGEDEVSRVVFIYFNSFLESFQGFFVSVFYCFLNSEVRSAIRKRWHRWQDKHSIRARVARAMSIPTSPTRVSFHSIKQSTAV
Description: cell-based or functional assay.

Test [1] deals with human corticotropin-releasing factor 2a (CRF2a receptor) (human), Q13324. Nature of the test: cell-based or functional assay.
human corticotropin-releasing factor 2a (CRF2a receptor) (human), Q13324, sequence (Q13324 20-411): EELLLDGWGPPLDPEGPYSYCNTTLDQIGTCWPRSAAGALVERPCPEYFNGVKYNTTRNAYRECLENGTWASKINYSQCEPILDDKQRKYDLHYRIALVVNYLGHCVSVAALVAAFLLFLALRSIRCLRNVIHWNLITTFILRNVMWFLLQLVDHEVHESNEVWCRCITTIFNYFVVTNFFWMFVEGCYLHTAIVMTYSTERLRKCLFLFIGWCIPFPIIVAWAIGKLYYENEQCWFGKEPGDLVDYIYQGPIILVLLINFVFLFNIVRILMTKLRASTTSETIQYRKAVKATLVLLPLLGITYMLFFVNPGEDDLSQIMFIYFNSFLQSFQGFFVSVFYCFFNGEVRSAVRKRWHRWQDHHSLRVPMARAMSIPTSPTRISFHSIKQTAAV

B1: SEQ ID NO 48 (peptide)
peptide: Ac-IVLSLD[dV]PIKLK([γGlu-C16 diacid])KILLEQEKQKKQREQAETNVQILAQV-NH2
SMILES: CC[C@H](C)[C@H](NC(C)=O)C(=O)N[C@H](C(=O)N[C@@H](CC(C)C)C(=O)N[C@@H](CO)C(=O)N[C@@H](CC(C)C)C(=O)N[C@@H](CC(=O)O)C(=O)N[C@@H](C(=O)N1CCC[C@H]1C(=O)N[C@H](C(=O)N[C@@H](CCCCN)C(=O)N[C@@H](CC(C)C)C(=O)N[C@@H](CCCCNC(=O)CC[C@H](NC(=O)CCCCCCCCCCCCCCC(=O)O)C(=O)O)C(=O)N[C@@H](CCCCN)C(=O)N[C@H](C(=O)N[C@@H](CC(C)C)C(=O)N[C@@H](CC(C)C)C(=O)N[C@@H](CCC(=O)O)C(=O)N[C@@H](CCC(N)=O)C(=O)N[C@@H](CCC(=O)O)C(=O)N[C@@H](CCCCN)C(=O)N[C@@H](CCC(N)=O)C(=O)N[C@@H](CCCCN)C(=O)N[C@@H](CCCCN)C(=O)N[C@@H](CCC(N)=O)C(=O)N[C@@H](CCCNC(=N)N)C(=O)N[C@@H](CCC(=O)O)C(=O)N[C@@H](CCC(N)=O)C(=O)N[C@@H](C)C(=O)N[C@@H](CCC(=O)O)C(=O)N[C@H](C(=O)N[C@@H](CC(N)=O)C(=O)N[C@H](C(=O)N[C@@H](CCC(N)=O)C(=O)N[C@H](C(=O)N[C@@H](CC(C)C)C(=O)N[C@@H](C)C(=O)N[C@@H](CCC(N)=O)C(=O)N[C@H](C(N)=O)C(C)C)[C@@H](C)CC)C(C)C)[C@@H](C)O)[C@@H](C)CC)[C@@H](C)CC)C(C)C)C(C)C
Regarding B1, the “Emax (% I)” value with CRF1R receptor stood at 4%. In addition, the EC50 [nM] (cAMP) in test [1] worked out at 1.35 nM.

B2: SEQ ID NO 37 (peptide)
peptide: Pentanoyl-VLSLD[dV]PIKLK([γGlu-C16 diacid])KILLEQEKQKKQREQAETNKQILAQV-NH2
SMILES: CCCCC(=O)N[C@H](C(=O)N[C@@H](CC(C)C)C(=O)N[C@@H](CO)C(=O)N[C@@H](CC(C)C)C(=O)N[C@@H](CC(=O)O)C(=O)N[C@@H](C(=O)N1CCC[C@H]1C(=O)N[C@H](C(=O)N[C@@H](CCCCN)C(=O)N[C@@H](CC(C)C)C(=O)N[C@@H](CCCCNC(=O)CC[C@H](NC(=O)CCCCCCCCCCCCCCC(=O)O)C(=O)O)C(=O)N[C@@H](CCCCN)C(=O)N[C@H](C(=O)N[C@@H](CC(C)C)C(=O)N[C@@H](CC(C)C)C(=O)N[C@@H](CCC(=O)O)C(=O)N[C@@H](CCC(N)=O)C(=O)N[C@@H](CCC(=O)O)C(=O)N[C@@H](CCCCN)C(=O)N[C@@H](CCC(N)=O)C(=O)N[C@@H](CCCCN)C(=O)N[C@@H](CCCCN)C(=O)N[C@@H](CCC(N)=O)C(=O)N[C@@H](CCCNC(=N)N)C(=O)N[C@@H](CCC(=O)O)C(=O)N[C@@H](CCC(N)=O)C(=O)N[C@@H](C)C(=O)N[C@@H](CCC(=O)O)C(=O)N[C@H](C(=O)N[C@@H](CC(N)=O)C(=O)N[C@@H](CCCCN)C(=O)N[C@@H](CCC(N)=O)C(=O)N[C@H](C(=O)N[C@@H](CC(C)C)C(=O)N[C@@H](C)C(=O)N[C@@H](CCC(N)=O)C(=O)N[C@H](C(N)=O)C(C)C)[C@@H](C)CC)[C@@H](C)O)[C@@H](C)CC)[C@@H](C)CC)C(C)C)C(C)C
As for B2, the “Emax (% I)” value with CRF1R receptor is 22%. In addition, in test [1], the EC50 [nM] (cAMP) stood at 0.13 nM.

B3: SEQ ID NO 36 (peptide)
peptide: Butyryl-VLSLD[dV]PIKLK([γGlu-C16 diacid])KILLEQEKQKKQREQAETNKQILAQV-NH2
SMILES: CCCC(=O)N[C@H](C(=O)N[C@@H](CC(C)C)C(=O)N[C@@H](CO)C(=O)N[C@@H](CC(C)C)C(=O)N[C@@H](CC(=O)O)C(=O)N[C@@H](C(=O)N1CCC[C@H]1C(=O)N[C@H](C(=O)N[C@@H](CCCCN)C(=O)N[C@@H](CC(C)C)C(=O)N[C@@H](CCCCNC(=O)CC[C@H](NC(=O)CCCCCCCCCCCCCCC(=O)O)C(=O)O)C(=O)N[C@@H](CCCCN)C(=O)N[C@H](C(=O)N[C@@H](CC(C)C)C(=O)N[C@@H](CC(C)C)C(=O)N[C@@H](CCC(=O)O)C(=O)N[C@@H](CCC(N)=O)C(=O)N[C@@H](CCC(=O)O)C(=O)N[C@@H](CCCCN)C(=O)N[C@@H](CCC(N)=O)C(=O)N[C@@H](CCCCN)C(=O)N[C@@H](CCCCN)C(=O)N[C@@H](CCC(N)=O)C(=O)N[C@@H](CCCNC(=N)N)C(=O)N[C@@H](CCC(=O)O)C(=O)N[C@@H](CCC(N)=O)C(=O)N[C@@H](C)C(=O)N[C@@H](CCC(=O)O)C(=O)N[C@H](C(=O)N[C@@H](CC(N)=O)C(=O)N[C@@H](CCCCN)C(=O)N[C@@H](CCC(N)=O)C(=O)N[C@H](C(=O)N[C@@H](CC(C)C)C(=O)N[C@@H](C)C(=O)N[C@@H](CCC(N)=O)C(=O)N[C@H](C(N)=O)C(C)C)[C@@H](C)CC)[C@@H](C)O)[C@@H](C)CC)[C@@H](C)CC)C(C)C)C(C)C
On to B3, for which the “Emax (% I)” value with CRF1R receptor is 22%. Besides, in test [1], the EC50 [nM] (cAMP) was 0.14 nM.

B4: SEQ ID NO 103 (peptide)
peptide: Ac-IVLSLD[dV]PIKLK([AEEA-AEEA-γGlu-C18 diacid])KILLEQEKQKKQREQAETNVQILAQV-NH2
SMILES: CC[C@H](C)[C@H](NC(C)=O)C(=O)N[C@H](C(=O)N[C@@H](CC(C)C)C(=O)N[C@@H](CO)C(=O)N[C@@H](CC(C)C)C(=O)N[C@@H](CC(=O)O)C(=O)N[C@@H](C(=O)N1CCC[C@H]1C(=O)N[C@H](C(=O)N[C@@H](CCCCN)C(=O)N[C@@H](CC(C)C)C(=O)N[C@@H](CCCCNC(=O)COCCOCCNC(=O)COCCOCCNC(=O)CC[C@H](NC(=O)CCCCCCCCCCCCCCCCC(=O)O)C(=O)O)C(=O)N[C@@H](CCCCN)C(=O)N[C@H](C(=O)N[C@@H](CC(C)C)C(=O)N[C@@H](CC(C)C)C(=O)N[C@@H](CCC(=O)O)C(=O)N[C@@H](CCC(N)=O)C(=O)N[C@@H](CCC(=O)O)C(=O)N[C@@H](CCCCN)C(=O)N[C@@H](CCC(N)=O)C(=O)N[C@@H](CCCCN)C(=O)N[C@@H](CCCCN)C(=O)N[C@@H](CCC(N)=O)C(=O)N[C@@H](CCCNC(=N)N)C(=O)N[C@@H](CCC(=O)O)C(=O)N[C@@H](CCC(N)=O)C(=O)N[C@@H](C)C(=O)N[C@@H](CCC(=O)O)C(=O)N[C@H](C(=O)N[C@@H](CC(N)=O)C(=O)N[C@H](C(=O)N[C@@H](CCC(N)=O)C(=O)N[C@H](C(=O)N[C@@H](CC(C)C)C(=O)N[C@@H](C)C(=O)N[C@@H](CCC(N)=O)C(=O)N[C@H](C(N)=O)C(C)C)[C@@H](C)CC)C(C)C)[C@@H](C)O)[C@@H](C)CC)[C@@H](C)CC)C(C)C)C(C)C
For the molecule B4, the “Emax (% I)” value with CRF1R receptor is 3%. For the same molecule, the EC50 [nM] (cAMP) in test [1] was 3.09 nM.

B5: SEQ ID NO 22 (peptide)
peptide: Pentanoyl-VLSLD[dV]PIKLK([γGlu-C16 diacid])Q[Aib]LLKQERQKKQREQAEKNVQILEQV-NH2
SMILES: CCCCC(=O)N[C@H](C(=O)N[C@@H](CC(C)C)C(=O)N[C@@H](CO)C(=O)N[C@@H](CC(C)C)C(=O)N[C@@H](CC(=O)O)C(=O)N[C@@H](C(=O)N1CCC[C@H]1C(=O)N[C@H](C(=O)N[C@@H](CCCCN)C(=O)N[C@@H](CC(C)C)C(=O)N[C@@H](CCCCNC(=O)CC[C@H](NC(=O)CCCCCCCCCCCCCCC(=O)O)C(=O)O)C(=O)N[C@@H](CCC(N)=O)C(=O)NC(C)(C)C(=O)N[C@@H](CC(C)C)C(=O)N[C@@H](CC(C)C)C(=O)N[C@@H](CCCCN)C(=O)N[C@@H](CCC(N)=O)C(=O)N[C@@H](CCC(=O)O)C(=O)N[C@@H](CCCNC(=N)N)C(=O)N[C@@H](CCC(N)=O)C(=O)N[C@@H](CCCCN)C(=O)N[C@@H](CCCCN)C(=O)N[C@@H](CCC(N)=O)C(=O)N[C@@H](CCCNC(=N)N)C(=O)N[C@@H](CCC(=O)O)C(=O)N[C@@H](CCC(N)=O)C(=O)N[C@@H](C)C(=O)N[C@@H](CCC(=O)O)C(=O)N[C@@H](CCCCN)C(=O)N[C@@H](CC(N)=O)C(=O)N[C@H](C(=O)N[C@@H](CCC(N)=O)C(=O)N[C@H](C(=O)N[C@@H](CC(C)C)C(=O)N[C@@H](CCC(=O)O)C(=O)N[C@@H](CCC(N)=O)C(=O)N[C@H](C(N)=O)C(C)C)[C@@H](C)CC)C(C)C)[C@@H](C)CC)C(C)C)C(C)C
Turning to B5, the “Emax (% I)” value in the test with CRF1R receptor is 3%. This molecule also yielded an EC50 [nM] (cAMP) in test [1] of 4.44 nM.

B6: SEQ ID NO 35 (peptide)
peptide: Propionyl-VLSLD[dV]PIKLK([γGlu-C16 diacid])KILLEQEKQKKQREQAETNKQILAQV-NH2
SMILES: CCC(=O)N[C@H](C(=O)N[C@@H](CC(C)C)C(=O)N[C@@H](CO)C(=O)N[C@@H](CC(C)C)C(=O)N[C@@H](CC(=O)O)C(=O)N[C@@H](C(=O)N1CCC[C@H]1C(=O)N[C@H](C(=O)N[C@@H](CCCCN)C(=O)N[C@@H](CC(C)C)C(=O)N[C@@H](CCCCNC(=O)CC[C@H](NC(=O)CCCCCCCCCCCCCCC(=O)O)C(=O)O)C(=O)N[C@@H](CCCCN)C(=O)N[C@H](C(=O)N[C@@H](CC(C)C)C(=O)N[C@@H](CC(C)C)C(=O)N[C@@H](CCC(=O)O)C(=O)N[C@@H](CCC(N)=O)C(=O)N[C@@H](CCC(=O)O)C(=O)N[C@@H](CCCCN)C(=O)N[C@@H](CCC(N)=O)C(=O)N[C@@H](CCCCN)C(=O)N[C@@H](CCCCN)C(=O)N[C@@H](CCC(N)=O)C(=O)N[C@@H](CCCNC(=N)N)C(=O)N[C@@H](CCC(=O)O)C(=O)N[C@@H](CCC(N)=O)C(=O)N[C@@H](C)C(=O)N[C@@H](CCC(=O)O)C(=O)N[C@H](C(=O)N[C@@H](CC(N)=O)C(=O)N[C@@H](CCCCN)C(=O)N[C@@H](CCC(N)=O)C(=O)N[C@H](C(=O)N[C@@H](CC(C)C)C(=O)N[C@@H](C)C(=O)N[C@@H](CCC(N)=O)C(=O)N[C@H](C(N)=O)C(C)C)[C@@H](C)CC)[C@@H](C)O)[C@@H](C)CC)[C@@H](C)CC)C(C)C)C(C)C
As for B6, the “Emax (% I)” value with CRF1R receptor amounted to 13%. Also, the EC50 [nM] (cAMP) in test [1] was 0.23 nM.
